Experimental data: patent US20250179143A1, “SYSTEMS AND METHODS FOR CHAPERONE-MEDIATED LIGAND EXCHANGE ON MHC-I AND MHC-RELATED MOLECULES USING CHICKEN TAPBPR” (priority 2022, published 2025)

Key:
[1] = system: 96 different HLA allotypes on single antigen HLA class I beads; assay: SAB screen, all beads; assay type: binding, human; conditions: across HLA allotypes; FIG. 23e
Protocol: For the Single Antigen Bead Screen, 7 μM of TAPBPR in tetramers were mixed with 4 μL of the LABScreen single antigen HLA-I bead suspension (OneLambda, Inc., CA, USA) in a 96-well plate. The samples were incubated for 1 hour, 550 rpm at RT, washed four times in Wash Buffer (OneLambda, Inc., CA, USA) to remove excess of tetramers and re-suspended in 1×PBS buffer (pH 7.2). For the negative controls, beads were incubated with the Anti-HLA Class I antibody W6/32 (Abcam, ab22432) for 30 min, 550 rpm at RT and washed three times prior tetramer addition. To test the levels of peptide loaded MHC-I molecules on the beads, Applicants used the same W6/32 antibody and the secondary anti-mouse PE-conjugated antibody (Abcam, ab97024) for detection. The levels of TAPBPR bound to the beads were measured using the Luminex 100 Liquid Array Analyzer System and the results were analyzed in GraphPad Prism v7.
SABs screen. 7 μM of TAPBPR in tetramers were mixed with 4 μL of the LABScreen single antigen HLA-I bead suspension (OneLambda, Inc., CA, USA) in a 96-well plate. […] The levels of TAPBPR bound to the beads were measured using the Luminex 100 Liquid Array Analyzer System and the results were analyzed in GraphPad Prism v9.

[2] = DSF thermal stability of chaperone proteins; conditions: DSF of the recombinant chaperone protein
HLA-A*02:01 [3] = biological target: T1, HLA-A*02:01 (Homo sapiens, UniProt P04439, D140Y/D185E/D98H/E176V/E277Q/G131W/G231S/I119V/I121R/I166T/I218V/L300P/L318F/N151K/N90K/P208A/P217A/Q86G/Q94H/R138H/R169H/T345S); assay: Native gel shift assay (EMSA); assay type: binding; conditions: UV-irradiated HLA-A*02:01/KILGFVFJV, 1:1 molar ratio
Protocol: (§1) For native gel shift assays, purified MHC-I molecules refolded with photo-labeled peptides (pMHC-I) and TAPBPR proteins were loaded into polyacrylamide gels alone at 7 μM concentration and as mixtures. For the mixtures, 1:1 molar ratio of pMHC-I and TAPBPR samples at 7 μM each were prepared and incubated at room temperature (RT) for 1 hour. The samples were then UV-irradiated for another hour at 365 nm and were run at 90 V for 5.5 hours on a 12% polyacrylamide gel. Staining was performed using InstantBlue (Novus Biologicals).
as §1, with “Native gel” for “For native gel”, “shift assay. Purified” for “shift assays, purified”, “mixtures, a” for “mixtures,”, “each was” for “each were”, “at RT” for “at room temperature (RT)”

HLA-B*37:01 = HLA-B*37:01 (Homo sapiens, UniProt P01889, A329T/A93T/A95T/C349S/D138N/D201E/D98Y/E176V/E187T/E204Q/E69T/G107R/H137Y/K202T/L119I/N104T/N87E/Q94N/R106L/R155S/R180D/S101D/S121R/V306I/Y123S/Y140F/Y33H/Y91S); assay: SAB screen; assay type: binding; conditions: HLA-B*37:01 beads; FIG. 41
HLA-A*01:01 = HLA-A*01:01 (Homo sapiens, UniProt P04439, A114D/A174V/A182V/D101N/D185E/E176A/E190D/L180R/Q94H/R68K/S129P/T187R/V100A/V91M/W191G); assay: Fluorescence polarization (FP) peptide exchange; conditions: HLA-A*01:01, chaperone at 5 μM
HLA-A*02:01 [4] = biological target: T1, HLA-A*02:01; assay: SPR; conditions: peptide-deficient (empty) HLA-A*02:01
HLA-B*08:01 = HLA-B*08:01 (Homo sapiens, UniProt P01889, A93T/A95T/D138N/E176V/E187T/K202T/Q94N/R180D/S35A/V36M/Y33D/Y91F); assay: Fluorescence polarization (FP) peptide exchange; conditions: based on DSF or FP assays
HLA-A*02:06 = biological target: T2, HLA-A*02:06 (Homo sapiens, UniProt P04439, D140Y/D185E/D98H/E176V/E277Q/F33Y/G131W/G231S/I119V/I121R/I166T/I218V/L300P/L318F/N151K/N90K/P208A/P217A/Q86G/Q94H/R138H/R169H/T345S); assay: Fluorescence polarization (FP) peptide exchange; assay type: biochemical; conditions: pHLA-A*02:06
T2 construct: made in house

HLA-A*02:01 [5] = biological target: T1, HLA-A*02:01; assay: Fluorescence polarization (FP) peptide exchange; conditions: HLA-A*02:01/KILGFVFβFV, […]

| Molecule | MFI ratios [1] | Tm [2] | TAPBPR/MHC-I complex formation (HLA-A*02:01 [3]) | binding of Tapasin tetramers (MFI) (HLA-B*37:01) | apparent rate constant kapp (HLA-A*01:01) | Kd (HLA-A*02:01 [4]) | Peptide exchange (HLA-B*08:01) | k2overall, fold improved compared to hTAPBPR (HLA-A*02:06) | k2overall, fold higher than hTAPBPR (HLA-A*02:01 [5]) |
| --- | --- | --- | --- | --- | --- | --- | --- | --- | --- |
| moTAPBPR: recombinant luminal domain of mouse TAPBPR, XP_030111162.1 (protein) TDPPTAPTTAERQRQPTDIILDCFLVTEDRHRGAFASSGDRERALLVLKQVPVLDDGSLEGITDFQGSTETKQDSPVIFEASVDLVQIPQAEALLHADCSGKAVTCEISKYFLQARQEATFEKAHWFISNMQVSRGGPSVSMVMKTLRDAEVGAVRHPTLNLPLSAQGTVKTQVEFQVTSETQTLNHLLGSSVSLHCSFSMAPGLDLTGVEWRLQHKGSGQLVYSWKTGQGQAKRKGATLEPEELLRAGNASLTLPNLTLKDEGNYICQISTSLYQAQQIMPLNILAPPKIQLHLANKDPLPSLVCSIAGYYPLDVGVTWIREELGGIPAQVSGASFSSLRQSTMGTYSISSTVMADPGPTGATYTCQVAHVSLEEPLTTSMRVLPNPEQRG | less than 5.8 | 56 °C | formed a new band |  |  |  |  |  |  |
| chTapasin: recombinant luminal domain of chicken Tapasin, a homolog of TAPBPR (protein) QFRVEDAASPPPPPAPVRCALLEGVGRGGGLPGGGNARPALLRFGGDAETPPEPGPEPEVTFNVSDPWGTLTPLGVPPRTPPSCELNPTNPQTGSDPWSRPLHPDARSPPTAGGQWWVAAVGTPQYGVTALLQGGMGTEGTITAAVALAVLTHTPTLRARVGSPIHLHCAFAAPPSSFVLEWRHQNRGAGRVLLAYDSSTARAPRAHPGAELLLGTRDGDGVTAVTLRLARPSPGDEGTYICSVFLPHGHTQTVLQLHVFEPPKVTLSPKNLVVAPGTSAELRCHVSGFYPLDVTVTWQRRAGGSGTSQSPRDTVMDSWTSGHRQAADGTYSRTAAARLIPARPQHHGDIYSCVVTHTALAKPMRVSVRLLLAGTEGPHLEDIT |  | 58 °C |  | tight binding |  |  |  |  |  |
| hTAPBPR^KRQ: human TAPBPR mutant R105K, K211R, R270Q (protein) KPHPAEGQWRAVDVVLDCFLAKDGAHRGALASSEDRARASLVLKQVPVLDDGSLEDFTDFQGGTLAQDDPPIIFEASVDLVQIPQAEALLHADCSGKEVTCEISKYFLQMTETTVKTAAWFMANMQVSGGGPSISLVMKTPRVTKNEALWHPTLNLPLSPQGTVRTAVEFQVMTQTQSLSFLLGSSASLDCGFSMAPGLDLISVEWRLQHRGRGQLVYSWTAGQGQAVRKGATLEPAQLGMARDASLTLPGLTIQDEGTYICQITTSLYQAQQIIQLNIQASPKVRLSLANEALLPTLICDIAGYYPLDVVVTWTREELGGSPAQVSGASFSSLRQSVAGTYSISSSLTAEPGSAGATYTCQVTHISLEEPLGASTQVVPPERR |  | 52.3 °C |  |  | 0.00013 s⁻¹ | 243 nM | failed to catalyze peptide exchange | approximately 9 fold | approximately 60 fold |
